Measurements: patent publication US9156916

Assays:
[1] = target: human surface membrane immunoglobulin D (smIgD) (human) (UniProt P01880); experiment: cell-based or functional assay
[2] = target: human surface membrane immunoglobulin D (smIgD) (human) (UniProt P01880); experiment: flow cytometry, dual labelling of human PBMC (CD3 and IgD)
[3] = target: human surface membrane immunoglobulin D (smIgD) (human) (UniProt P01880); experiment: flow cytometry, dual labelling of human PBMC (CD14 and IgD)

Chain of UniProt P01880 (P01880 whole entry): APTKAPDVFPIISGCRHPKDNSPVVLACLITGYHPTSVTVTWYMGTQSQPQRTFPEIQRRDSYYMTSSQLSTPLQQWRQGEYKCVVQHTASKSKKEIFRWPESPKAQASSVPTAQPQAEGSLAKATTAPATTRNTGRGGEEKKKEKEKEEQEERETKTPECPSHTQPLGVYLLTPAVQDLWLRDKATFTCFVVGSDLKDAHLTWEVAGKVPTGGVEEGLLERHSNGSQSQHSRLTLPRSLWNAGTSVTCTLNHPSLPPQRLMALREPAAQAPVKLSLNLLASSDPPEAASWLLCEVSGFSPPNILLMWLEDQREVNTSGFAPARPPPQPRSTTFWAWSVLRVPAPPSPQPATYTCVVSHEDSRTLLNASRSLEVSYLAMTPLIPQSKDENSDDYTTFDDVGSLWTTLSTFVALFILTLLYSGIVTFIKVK

Substance: anti-human smIgD antibody (clone STAR94, Serotec, Oxford, UK)
- proportion of human monocyte population expressing intra-cellular TNF-α after LPS, antibody given 24 hrs before LPS (flow cytometry) [1]: 5%
- proportion of human monocyte population expressing intra-cellular TNF-α, antibody given concurrently with LPS for 4 hours (flow cytometry) [1]: 26%

Substance: goat FITC-conjugated anti-human IgD antibody (clone STAR94F)
- percent of CD3+ T-cells labelled for smIgD [2]: 10%
- percent of CD14+ cells labelled for smIgD [3]: 54%
